Measured values reported in PMC10688271, “Molecular details of the CPSF73-CPSF100 C-terminal heterodimer and interaction with Symplekin”.

B1: dsDNA-Cy3 (dsDNA)
DNA 1: AGGGTCTCCATTTTGAAGCATGC
DNA 2: GCATGCTTCAAAATGGAGACCCT
B2: dsRNA-Cy3 (dsRNA)
RNA 1: AGGGUCUCCAUUUUGAAGCAUGC
RNA 2: GCAUGCUUCAAAAUGGAGACCCU

Molecular target: T1, ec73-CTD12;ec100-CTD12 (Encephalitozoon …, UniProt Q8SUE4;M1JIZ1 452-567;525-639, |)
T1 sequence 1: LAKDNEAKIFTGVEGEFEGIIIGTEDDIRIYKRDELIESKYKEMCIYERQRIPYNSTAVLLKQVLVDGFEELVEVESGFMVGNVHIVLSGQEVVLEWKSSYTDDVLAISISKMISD
T1 sequence 2: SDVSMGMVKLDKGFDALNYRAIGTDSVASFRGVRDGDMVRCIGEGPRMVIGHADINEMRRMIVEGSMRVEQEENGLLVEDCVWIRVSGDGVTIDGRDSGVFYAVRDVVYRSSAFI
Assay: EMSA; 50 uM protein, 500 nM nucleic acid; NMR also negative (NMR ligands not specified); EMSA: 20 mM Tris pH 7.5, 150 mM potassium acetate, 1 mM EDTA, 10% glycerol; 30 min incubation; 10% Tris-glycine gel (running buffer 27 mM Tris, 192 mM glycine)
Details: protein: recombinant;recombinant, copies: 1;1

[1] = label: 3' Cy3 on forward strand, blunt

| Binder | binding result (label: 3' Cy3, single strand) | binding result [1] |
| --- | --- | --- |
| AGGGTCTCCATTTTGAAGCATGC (ssDNA) [ssDNA-Cy3] | no binding |  |
| B1 |  | no binding |
| AGGGUCUCCAUUUUGAAGCAUGC (ssRNA) [ssRNA-Cy3] | no binding |  |
| B2 |  | no binding |
